Measurements: US20110294167

Experiments:
[1] = tested on: T1, ORF904 primase (residues 1-370) (Sulfolobus islandicus); settings: primer synthesis inferred from primer-free amplification with Phi29, 1500 ng primase vs Phi29 only; 10 mM MgCl2, 1 mM ATP, 30 C
T1 sequence: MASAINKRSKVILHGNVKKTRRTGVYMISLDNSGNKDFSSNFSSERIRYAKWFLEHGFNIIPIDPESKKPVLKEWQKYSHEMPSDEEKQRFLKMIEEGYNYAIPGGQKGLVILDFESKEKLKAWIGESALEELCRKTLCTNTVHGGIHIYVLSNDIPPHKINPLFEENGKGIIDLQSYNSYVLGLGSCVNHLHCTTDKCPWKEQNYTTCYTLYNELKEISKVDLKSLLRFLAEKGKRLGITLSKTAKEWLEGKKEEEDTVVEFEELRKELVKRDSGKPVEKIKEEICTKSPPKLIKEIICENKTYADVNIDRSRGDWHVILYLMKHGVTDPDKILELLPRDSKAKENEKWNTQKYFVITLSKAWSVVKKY

[2] = biological target: T7 gp4 K318A primase (Bacteriophage T7) (UniProt P03692); settings: amplification with Phi29 and T7 DNA polymerase; 10 mM MgCl2, NTPs, 30 C

For M13 ssDNA (M13mp18), the activity [1] was 13 fold and the activity [2] was 4000 fold.
